Measurements from US20200140501A1 (published 2020).

Target: T1, hNGAL lipocalin mutein SEQ ID NO: 1
T1 chain: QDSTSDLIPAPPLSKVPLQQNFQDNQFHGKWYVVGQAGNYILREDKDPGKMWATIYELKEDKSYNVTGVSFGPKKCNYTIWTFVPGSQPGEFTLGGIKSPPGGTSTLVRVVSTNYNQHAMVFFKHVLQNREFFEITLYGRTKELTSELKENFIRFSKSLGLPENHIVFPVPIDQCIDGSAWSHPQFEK
Test: solution competition ELISA: ligand titrated against 0.1 nM SEQ ID NO: 1, free mutein captured on immobilised hAng-2
Method: In the following detailed experimental protocol, incubation and washing steps were performed as described above in the competition ELISA protocol (see Example 5).
The residual supernatants were discarded and 20 μl HRP-labeled anti-lipocalin-mutein antibody was added at a predetermined optimal concentration in PBS-T/BSA and incubated for 1 h at RT. […] After washing, 20 μl fluorogenic HRP substrate (Quantablue, Pierce) was added to each well, and the reaction was allowed to proceed for 60 minutes. The fluorescence intensity of every well on the plate was read using a Genios Plus Microplate reader (Tecan).

B1: human angiopoietin-1 (Ang-1) (ligand, UniProt Q15389 20-498, looked up)
chain: SNQRRSPENSGRRYNRIQHGQCAYTFILPEHDGNCRESTTDQYNTNALQRDAPHVEPDFSSQKLQHLEHVMENYTQWLQKLENYIVENMKSEMAQIQQNAVQNHTATMLEIGTSLLSQTAEQTRKLTDVETQVLNQTSRLEIQLLENSLSTYKLEKQLLQQTNEILKIHEKNSLLEHKILEMEGKHKEELDTLKEEKENLQGLVTRQTYIIQELEKQLNRATTNNSVLQKQQLELMDTVHNLVNLCTKEGVLLKGGKREEEKPFRDCADVYQAGFNKSGIYTIYINNMPEPKKVFCNMDVNGGGWTVIQHREDGSLDFQRGWKEYKMGFGNPSGEYWLGNEFIFAITSQRQYMLRIELMDWEGNRAYSQYDRFHIGNEKQNYRLYLKGHTGTAGKQSSLILHGADFSTKDADNDNCMCKCALMLTGGWWFDACGPSNLNGMFYTAGQNHGKLNGIKWHYFKGPSYSLRSTTMMIRPLDF
notes: also called hAng-1; human Ang-1
- IC50: > 0.1 µM
